Numbering of substitutions follows the chain as printed. Numbers in names are those of the source.
Legend:
Asp76 = Asp76 (UniProt position 76, TLNETDLTQIP); experiment: fluorescence; settings: 20 °C; not stated (McIlvaine buffer: mixtures of 0.1 M citric acid and 0.2 M Na2HPO4; 10 mM KCl adjusted with HCl for more acid solutions); McIlvaine buffer (citric acid / Na2HPO4) for pH 2.6-7; 10 mM KCl/HCl for more acid solutions; 50 uM protein, no ligand; dimer at neutral pH, monomer below about pH 3
[1] = target: HdeB E41Q, C-terminal His6 E41Q (UniProt P0AET2); experiment: Intrinsic tryptophan fluorescence (emission maximum, intensity, acrylamide Stern-Volmer quenching constant, steady-state anisotropy) as a function of pH; settings: pH 1.5-7.5; 20 °C; Not stated as a number. It varies with the McIlvaine mixing ratio; 10 mM KCl below pH 2.6.; McIlvaine buffer (mixtures of 0.1 M citric acid and 0.2 M Na2HPO4) for pH 2.6-7; 10 mM KCl adjusted with HCl for more ac
[2] = target: HdeB (acid stress chaperone HdeB), wild type, C-terminal His6 (UniProt P0AET2); experiment: as above; settings: pH 1.5-7.5; 20 °C; Not stated as a number. It varies with the McIlvaine mixing ratio; 10 mM KCl below pH 2.6.; McIlvaine buffer (mixtures of 0.1 M citric acid and 0.2 M Na2HPO4) for pH 2.6-7; 10 mM KCl adjusted with HCl for more ac
[3] = target: the molecule itself; experiment: SEC; gel filtration at neutral pH (pH 7)
[4] = target: the molecule itself; experiment: other fluorescence titration; intrinsic tryptophan fluorescence (emission maximum, acrylamide quenching, anisotropy) against pH 1.5 to 7.5; 50 μM HdeB, McIlvaine buffer, 20 °C; apparent pKa; neutral side of the transition
[5] = target: the molecule itself; experiment: crystal structure; methylated HdeB-His6 at 15 mg/ml; 50% (v/v) polyethylene glycol 400, 0.1 M acetate pH 4.5, 0.2 M Li2SO4; 1.5 Å; dimer found with PISA
[6] = target: the molecule itself; experiment: other fluorescence titration; emission maximum against HdeB concentration (1-100 μM, as monomers) at pH 7.5; dimer to monomers

## Acid stress chaperone HdeB H59N (His6-tagged) (Escherichia coli; H59N)
Asp76
  pKa: 3.5

## HdeB E41Q, C-terminal His6 E41Q
[1]
  shift of the apparent pKa of dimer dissociation relative to wild type (50 uM): apparent pKa ∼ 0.5 pH units higher than that of wild type

## Acid stress chaperone HdeB (HdeB-His6 WT) (Escherichia coli)
Asp76
  pKa: 2.9

## HdeB (acid stress chaperone HdeB), wild type, C-terminal His6
[2]
  effective pKa of dimer dissociation (midpoint of the dimer-to-monomer transition at 50 uM): effective pKa ≈ 3 for dissociation of the dimer

B1: HdeB D76N (natural protein, E. coli, UniProt P0AET2 30-108, looked up)
chain: ANESAKDMTCQEFIDLNPKAMTPVAWWMLHEETVYKGGDTVTLNETNLTQIPKVIEYCKKNPQKNLYTFKNQASNDLPN
notes: HdeB, E. coli, with D76N; residue numbers count on the precursor; Probably made from the HdeB-His6 construct; also called D67N (as printed in two places)
[3]
  binding result: binds

B2: HdeB H59N (natural protein, E. coli, UniProt P0AET2 30-108, looked up)
chain: B1 chain with H30N, N47D
notes: HdeB, E. coli, with H59N; residue numbers count on the precursor; Probably made from the HdeB-His6 construct; also called H59N mutant
[4]
  binding result: binds

B3: HdeB (methylated) (natural protein, E. coli, UniProt P0AET2 30-108, looked up)
chain: B1 chain with N47D
modifications: reductively methylated lysines: doubly methylated K48, K88 and K93; some modification of K35, K65, K89 and K99; K82 apparently unmodified
notes: HdeB, E. coli; A30 to A102 ordered, six C-terminal residues and the His-tag disordered; residue numbers count on the precursor; A selenomethionine variant, treated identically, was used for phasing only; also called methylated HdeB-His6; HdeB after reductive methylation; source: E. coli MG1655ΔhdeAB, purified (Ni resin, gel filtration), then reductive methylation and gel filtration; not shown: …
[5]
  stoichiometry N: 2

B4: HdeB E41Q (natural protein, E. coli, UniProt P0AET2 30-108, looked up)
chain: B1 chain with E12Q, N47D
notes: HdeB, E. coli, with E41Q; residue numbers count on the precursor; The methods speak of 'purified HdeB-His6 WT and E41Q samples'; probably the same construct and host as the wild type; also called E41Q mutant; source: purified mutant protein
[6]
  Kd: 34 µM

B5: HdeB-His6 WT (natural protein, E. coli, UniProt P0AET2 30-108, looked up)
chain: B1 chain with N47D
notes: HdeB, E. coli periplasmic acid-stress chaperone; begins at A30; A30 to A102 ordered in the crystal plus six disordered C-terminal residues; residue numbers count on the precursor; Cloned with hdeA (hdeAB genes) in pTrc99A; primers are in the Supplementary Data; also called HdeB WT; wild type; source: E. coli MG1655ΔhdeAB, plasmid pTrcHdeABHis6, 1 mM IPTG, purified (Ni resin, gel filtration); not …
[3]
  stoichiometry N: 2
[6]
  Kd: < 1 µM

— PMC3299563, “Salt Bridges Regulate Both Dimer Formation and Monomeric Flexibility in HdeB and May Have a Role in Periplasmic Chaperone Function” (Journal of Molecular Biology, 2011)
